The supplement of paper PMC10567573
± gives the standard deviation.

Test: protein stability index of a GFP-peptide fusion (GPS, HEK-293T) (PSI 1-6); higher = more stable
[1] = treatment: DMSO, c terminus: a fixed tail appended
[2] = treatment: MLN4924 1 uM, 8 h, c terminus: a fixed tail appended
[3] = treatment: DMSO, c terminus: native
[4] = treatment: MLN4924 1 uM, 8 h, c terminus: native
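Note: 24-mer peptide tiles fused after GFP, lentivirally expressed, FACS-sorted into six equal bins by GFP/DsRed ratio, decoded by Illumina sequencing, PSI is the read-weighted mean bin number.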

Sequence	protein stability index [1]	protein stability index [2]	protein stability index [3]	protein stability index [4]
DIHITARIESDLTLESLSDEEIHP [DRICH1]	4.85 ± 0.2	4.91 ± 0.19		
TEIEEELKSLDKEISEAFTSTGFD [BCL2L13]	5.16 ± 0.27	5.26 ± 0.34		
ERVYSLQHLDPQGAQELLEFTIRD [INTS4]	3.74 ± 0.42	3.69 ± 0.31		
GDKGALQRLIVGNSALKDKEDQFG [INVS]	4.62 ± 0.21	4.72 ± 0.093		
STIGFKLPNHRAAKRLWKVCVEHH [EPB41L3]	2.26 ± 0.27	2.58 ± 0.45		
GSQIHDQFILRVSPDLEWHAACLK [ISL2]	2.3 ± 0.43	2.66 ± 0.54		
HRVKLTNSTLDPHGHLILHSMHKY [TBX6]	2.37 ± 0.35	2.71 ± 0.2		
ALKRFVNLVARHPLFSEDVVLKLF [SNX8]	2.38 ± 0.88	2.46 ± 0.1		
ESSQKYKEGKYIIELNHMIKDNGW [YPEL3]	3.04 ± 0.21	3.08 ± 0.27		
QVGTLLFRSRSRLTHLSLSRRASE [CDC25B]	2.93 ± 0.39	3 ± 0.13		
RTCTAPLDRLKVLMQVHASRSNNM [SLC25A25]	2.68 ± 0.2	2.81 ± 0.21		
KDPSAIGKKQVPCFASMLTKKLHF [CASP6]	2.23 ± 0.14	2.36 ± 0.16		
MFLQLVPSWNGSLKQLLTETDVWF [GMCL1]	3.13 ± 0.68	2.56 ± 1.3		
QLPFCGPNVIDNFLCDLYPLLKLA [OR4A15]	2.64 ± 0.66	2.47 ± 0.25		
ENCLDAKSTSIQVIVKEGGLKLIQ [MLH1]	2.7 ± 0.37	2.94 ± 0.22		
DKTDISSGRARQQDEEMLELPAPA [MLH1]	5.42 ± 0.36			
YSKPGLSMRLLESKKGLSFFAFEH [TCF25]	2.12 ± 0.33	2.08 ± 0.38		
PSSSSIHNGDMEKILLDAQHESGQ [BNIP3L]	5.12 ± 0.14	5.27 ± 0.096		
APWNYHYHCPGSPDHQVPYGHDYP [TRAF3IP2]	2.6 ± 0.46	3.23 ± 0.3		
GVCMGLVAAACACGFTVAQIITSL [OR10K2]	3.21 ± 0.34	3.04 ± 0.69		
SQSETSSAVSTPSPVTRTRSLSAC [DLC1]	4.89 ± 0.23	4.87 ± 0.14		
ELERIGPQHQAGSDSLLTGMAFFK [CNOT7]	3.25 ± 0.34	3.62 ± 0.11		
EYLSLVKGGQDVKKKVHLSEKIHP [PRIM1]	2.65 ± 0.3	2.79 ± 0.39		

Sequence	protein stability index [1]	protein stability index [2]	protein stability index [3]	protein stability index [4]
DPCVISQEIMEKYNIKLKWTNQQK [CFHR2]	3.19 ± 0.22	2.92 ± 0.22		
HYWELDVDNSCDWALGVCNNSWIR [TRIM43]	2.25 ± 0.21	2.2 ± 0.34		
PCAGLNCQALDANLDANLAFASFT [TLE6]	2.98 ± 0.33	2.99 ± 0.28		
LTRKGLVRVVFFPLFSNWWIQVTS [PHTF1]	3.06 ± 0.039	2.81 ± 0.71		
TALTSFCAKYTYPVCSALLDPVLQ [FANCE]	2.31 ± 0.37	2.23 ± 0.35		
DGPGGNLAHAFQPGPGIGGDAHFD [MMP1]	4.95 ± 0.3	4.9 ± 0.14		
GWSKGFIGMHREMQVNPISKRMGP [RHOBTB1]	2.63 ± 0.32	2.61 ± 0.12		
PPPPMQPTVPSAATSQPTPSQHSA [CCDC6]	5.23 ± 0.12	5.47 ± 0.18		
TSRGKLGGQDSFESIESYDSCDRL [ETS1]	4.62 ± 0.16	4.68 ± 0.13		
GASSPAAYDEALAELHAHGPAAFV [ZSWIM9]	3.87 ± 0.22	3.99 ± 0.19		
QWRIRNLPYPKDVYSVSVDQKERC [DPCD]	3.32 ± 0.42	3.17 ± 0.21		
YHRETEGEEQAQLLHVSSPNLASD [KCNA1]	5.16 ± 0.3	5.21 ± 0.27		
DLSMDGLFGTIAYLPPERIREKSR [RIPK4]	3.58 ± 0.27	3.66 ± 0.34		
PEQSLKKTKTSEYPIIFVYYLRKG [SPANXN3]	2.75 ± 1.8	2.59 ± 0.37		
VQLQRIPLSAVYRICLGKFTFPGM [TPRG1]	2.65 ± 0.69	2.21 ± 0.43		
IFIARRSLLDELLEVDHIRTIYHM [SOAT1]	2.8 ± 0.58	2.66 ± 0.75		
YLLDYPNNLLSAPPPDVTQLTPPS [ANKRD17]	3.23 ± 0.14	3.44 ± 0.2		
CGTKYPVEWAKFCCECGIRRMIL [ZC2HC1A]			3.11 ± 0.39	3.53 ± 0.055
YTVNFLEAKEGDLHRIEIPFKFHM [CARM1]		3.15 ± 1.1		
LQRLGELQSELAGVADFSATYLRC [INTS4]	2.72 ± 0.22	2.93 ± 0.34		
LALGVSLLCNAITGITLLRVKFKS [PTGFR]	2.88 ± 0.48	2.73 ± 0.37		
PQKLKEVISLEKLNVGNERYVFEA [GAN]	2.96 ± 0.21	2.92 ± 0.41		
DAAHPTNVQRLAEPSQMLKHAVVN [CTNNB1]	4.62 ± 0.19	4.62 ± 0.15		

Sequence	protein stability index [1]	protein stability index [2]	protein stability index [3]	protein stability index [4]
RPAFVRVRRGHSHLAPSEAKAADS	4.35 ± 0.1	4.45 ± 0.16		
MELLCHEVDPVRRAVRDRNLLRDD [CCND2]	4.28 ± 0.34	4.5 ± 0.12		
DIDLSLYIPRDVDETGITVASLER [ZC3H15]	3.19 ± 0.28	3.5 ± 0.23		
GLGFASNAFQETWYWHGDVNSNKV [LOXL2]	3.04 ± 0.12	2.44 ± 0.29		
DLFVENMPGFPDNIRPSSSGGYWV [APMAP]	2.32 ± 0.26	2.49 ± 0.34		
SVEYGYRPGATAVPTPLTNVQILL [FCHO1]	2.06 ± 0.62	2.03 ± 0.48		
LDPDSKENAQIIYSLAEDTIQGVP [PCDHGA10]	4.64 ± 0.15	4.56 ± 0.23		
GTAFDAETDSEMNSQESRSDLEDM [SMG5]	5.63 ± 0.24	5.5 ± 0.49		
NQTALHLAAAHGHSEVVEELVSAD [RIPK4]	5.46 ± 0.082	5.36 ± 0.11		
SLPRDRVLGFLIENFKGLAIPYLE [VPS39]	3.24 ± 0.26	2.92 ± 0.49		
LLEERRPADSAQLLSLNSLLPESG [TFE3]	4.37 ± 0.42	4.54 ± 0.24		
EKEMKAQEQRLGIRISMSHEEEPL [GMPPB]	5.23 ± 0.25	5.24 ± 0.086		
IKSKKKLLQIIDTTLLKCYLHTNV [VPS39]	3.04 ± 0.37	2.86 ± 0.52		
LHEALLEYEAGRAGPGGGAERRRA [ESRRA]	4.27 ± 0.34	4.82 ± 0.18		
LQAKALQLIVTARTTRGLDPLFGM [INTS4]	2.88 ± 0.6	2.59 ± 0.66		
EEAEWESINVLLMMHGLKPLSLVK [CEP70]	2.36 ± 0.66	2.31 ± 0.35		
RRLYEKKIFEYETQRRRLSPPSSS [EMD]	3.25 ± 0.26	3.35 ± 0.48		
FEFRPELVNDDDEEADDTRYTQGT [ZC3H15]	5.44 ± 0.25	5.28 ± 0.2		
ITIEPGTSYRLQGLKPNSLYYFRL [PTPRD]	2.63 ± 0.12	2.61 ± 0.43		
SRAANQEQRANDLEQIMESVKSKI [CEP70]	4.44 ± 0.22	4.49 ± 0.14		
RKSLFDDKAVEIEELTYIIKQDIN [STX5]	2.9 ± 0.18	2.76 ± 0.31		
NKKAKRYLLHGLECVVAMHQAQLI [EIF5]	3.02 ± 0.47	2.5 ± 0.4		
GGVGYGDSKDCILEPLSLPESPGG [ZNF277]	4.43 ± 0.37	4.98 ± 0.19		

Sequence	protein stability index [1]	protein stability index [2]	protein stability index [3]	protein stability index [4]
METSAPRAGSQVVATTARHSAAYR [FUNDC2]	4.5 ± 0.19	4.2 ± 0.11		
FHIFRTLEVNRLMGKLLQQPNTYA [PKD2L1]	2.46 ± 0.68	2.5 ± 0.26		
NYGKILVEKNEHCIENNIDLQVNR [R3HDM1]	3.56 ± 0.33	3.75 ± 0.19		
SWPRASPASGASSIKPEASQMPPP [SCNN1D]	4.62 ± 0.27	4.63 ± 0.38		
SGRRNWCSYVVTRTISCHVQNGTY [EMID1]	2.12 ± 0.41	1.93 ± 0.37		
VSTMRCKTRQKSEKQMEEKRRANQ [PPEF2]	4.41 ± 0.7	4.79 ± 0.24		
MACHRCLVYLGDLSRYQNELAGVD [SMG5]	2.64 ± 0.7	2.54 ± 0.55		
LTAKQLIKSIVEASKGCQLGKTEQ [TRIM63]	2.57 ± 0.18	2.38 ± 0.6		
YQSGGRIRRPVNVPIDIFSEEIRF [KCNA3]	2.49 ± 0.43	3.11 ± 0.37		
KHRIRRVLIVDWDVHHGQGTQFTF [HDAC6]	3.35 ± 0.42	3.14 ± 0.83		
VHFSEAIEKFIREPSLKATMGLAG [ALG2]	2.33 ± 0.27	2.43 ± 0.24		
SFQPECSMKLTPLVLEVFGNEIS [VDR]			2.23 ± 0.33	2.41 ± 0.14
YCLTCEVPTCSMCKVFGIHKACEV [TRIM63]	2.69 ± 0.45	2.8 ± 0.33		
SGPEGNLNQIVTEPDANFPQFLHE [FAM104B]	4.81 ± 0.15	4.93 ± 0.16		
FTLGTNAIIISTIVLDRALHIPMY [OR10K2]	2.89 ± 0.82	2.87 ± 0.78		
VEKLKQMQEFFGLKVTGKPDAETL [MMP1]	3.63 ± 0.23	3.83 ± 0.16		
RGLSQNLFSNSDHQRDGTLGALHT [SASS6]	3.87 ± 0.26	3.81 ± 0.17		
LMTCEMLNRRNGSLRIALSEHLKQ [EDNRA]	2.71 ± 0.17	2.72 ± 0.26		
TVEKDESHAGKVVLRSWYEKNKHI [FAM50A]	3.74 ± 0.33	3.87 ± 0.18		
GSTLAMLQRLKEQQFVIAGVLVED [ZBED1]	2.22 ± 0.46	2.1 ± 0.19		
PPPASQPVVKALFGASAAGGLSPV [CDC25A]	4.08 ± 0.14	4.17 ± 0.21		
